From patent US10704056B2, “Constitutively active ABA receptor mutants” (The Regents of the University of California, priority 2011, dated 2020)

Columns and labels:
HAB1 = experiment: In vitro PP2C phosphatase (pNPP) receptor activation assay with HAB1; type: biochemical, Arabidopsis; conditions: 600 nM GST-HAB1, 0-4800 nM receptor, no ABA
Columbia seeds = experiment: Seed dormancy / germination assay of 35S-driven transgenic lines, stratified vs unstratified; type: in vivo, Arabidopsis; conditions: 35S-driven overexpression in wild-type Columbia background
Procedure: To investigate the effects of the PYL2^CA3 allele, we performed a number of physiological assays on wild-type and aba2-1 genotypes. Columbia (Col), 35S::PYL2, and 35S::PYL2^CA3 seed samples were divided into two portions; one portion was stratified on ⅓ MS plates for 6 days at 4° C. and the second portion was plated six days later ⅓ MS plates. Both samples were the transferred to room temperature (23° C.) and incubated in darkness. […] Each experiment was performed in triplicate and each point plotted represents the average of tests conducted using 40 to 70 seeds. […] Thus, overexpression of PYL2^CA3 activates the ABA-regulated seed dormancy pathway.
In order to assay dormancy of seeds for Columbia, 35S::GFP-PYL2, and 35S::GFP-PYL2^CA3 were divided into two portions and surface sterilized using chlorine gas (prepared in situ using bleach and HCl). One portion was stratified on ⅓ MS agar plates for 6 days at 4° C. in darkness and the second portion, which was maintained at room temperature, was seeded six days later on the ⅓ MS agar plates; both samples were transferred to a 23° C. light-tight growth chamber and germination scored at 24 hour periods. The homozygous 35S::GFP-PYL2 and 35S::GFP-[…] seeds used in these experiments were ˜5- and ˜6-months post-harvest respectively at the time of the experiment shown in FIG. 12.

B1: PYL2^CA3: PYL2 mutant (H65P, V87F, F165V); expressed in plants as 35S-driven GFP fusion (protein)
chain: HHHHHHMSSSPAVKGLTDEEQKTLEPVIKTYHQFEPDPTTCTSLITQRIHAPASVVWPLIRRFDNPERYKPFVKRCRLISGDGDVGSVREVTFISGLPASTSTERLEFVDDDHRVLSFRVVGGEHRLKNYKSVTSVNEFLNQDSGKVYTVVLESYTVDIPEGNTEEDTKMVVDTVVKLNLQKLGVAATSAPMHDDE
basal receptor activity (inhibition of HAB1 phosphatase activity in the absence of ABA) (HAB1): highly activated in the absence of ABA | seed hyperdormancy (stratification dependent germination) (Columbia seeds): induces a state of hyperdormancy in seeds
